This note sets out measurements from US20250002610A1 (Genmab, published 2025).

The target in experiment [1] is T1, cynomolgus monkey FAPα on Expi293F cells (cynomolgus monkey (Macaca fascicularis), UniProt Q12884 1-760 (human entry)).
T1 sequence: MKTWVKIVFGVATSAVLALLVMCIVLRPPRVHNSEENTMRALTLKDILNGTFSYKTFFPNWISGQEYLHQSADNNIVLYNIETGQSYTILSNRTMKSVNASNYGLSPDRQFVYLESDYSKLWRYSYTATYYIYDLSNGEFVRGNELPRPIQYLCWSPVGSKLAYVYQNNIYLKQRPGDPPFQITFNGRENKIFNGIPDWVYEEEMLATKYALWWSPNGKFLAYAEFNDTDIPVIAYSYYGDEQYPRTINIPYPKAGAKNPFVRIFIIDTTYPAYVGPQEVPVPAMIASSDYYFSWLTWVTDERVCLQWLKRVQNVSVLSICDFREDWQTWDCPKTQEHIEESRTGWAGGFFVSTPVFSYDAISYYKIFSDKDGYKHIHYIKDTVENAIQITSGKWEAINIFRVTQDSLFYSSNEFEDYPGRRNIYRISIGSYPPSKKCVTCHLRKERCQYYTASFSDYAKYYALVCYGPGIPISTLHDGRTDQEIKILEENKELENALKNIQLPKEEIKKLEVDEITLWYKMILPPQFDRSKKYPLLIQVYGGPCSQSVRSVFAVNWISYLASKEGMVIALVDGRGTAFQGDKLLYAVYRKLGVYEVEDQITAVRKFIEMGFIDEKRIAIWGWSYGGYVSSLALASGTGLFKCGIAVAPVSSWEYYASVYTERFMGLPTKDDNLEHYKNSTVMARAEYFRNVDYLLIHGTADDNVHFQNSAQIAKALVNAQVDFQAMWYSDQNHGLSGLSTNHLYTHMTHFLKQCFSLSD
As to the kind of experiment: flow cytometry, Expi293F cells expressing cynomolgus monkey FAPα, n = 1. As for the experimental part: (§1) Binding of BisG1-FAPα-FERL/DR4-FERR, BisG1-FAPα-FEAL/b12-FEAR and IgG1-FAPα-FERL to FAPα of species commonly used for nonclinical toxicology studies was assessed by flow cytometry using Expi293F cells transiently expressing FAPα from different animal species. IgG1-b12 was included as negative control.
(§2) Expi293F cells expressing recombinant FAPα from various species (human, cynomolgus monkey, dog, pig, rat or mouse) were seeded (20,000 cells/well) in 96-Well round bottom plates (Greiner Bio-one, Cat #650101). Antibody dilutions were prepared using FACS buffer, consisting of PBS (Capricorn Scientific, Cat #PBS-10XA, diluted to 1×PBS in distilled water)+1% BSA (Roche, Cat #10735086001)+0.02% Sodium Azide (Bio-World, Cat #41920044-3). Plates were centrifuged, supernatant was removed, and cells were resuspended in 100 μL of antibody dilutions (concentration range 30-0.00017 μg/mL with three-fold serial dilutions using FACS buffer) of BisG1-FAPα-FERL/DR4-FERR, BisG1-FAPα-FEAL/b12-FEAR, IgG1-FAPα-FERL and IgG1-b12 and incubated for 30 min at 4° C. […] After 30 min incubation at 4° C., cells were washed with FACS buffer and resuspended in FACS buffer supplemented with TO-PRO-3 Iodide viability marker (Invitrogen, Cat #T3605, diluted 1:4,000). Antibody binding to viable cells (gMFI of PE on TO-PRO-3 negative cells) was analyzed by flow cytometry on a FACS Celesta and FACS_Diva software (first two experiments) or iQue® 3 and FlowJo software (last experiment). gMFI was determined and visualized using GraphPad Prism. Binding curves were analyzed using nonlinear regression analysis. The concentration (pg/mL) at which 50% of the maximal effect was observed (EC₅₀) was derived from the fitted curves.

In experiment [2] the target is T1, cynomolgus monkey FAPα on Expi293F cells. Kind of experiment: flow cytometry, Expi293F cells expressing cynomolgus monkey FAPα, n = 2. As for the experimental part: as §1, §2
Experiment [3] deals with T2, human DR4 (Death Receptor 4), cell surface expressed on human tumor cell lines (human, UniProt O00220 24-468).
T2 construct: also called TNFRSF10A; TRAIL-R1
T2 sequence: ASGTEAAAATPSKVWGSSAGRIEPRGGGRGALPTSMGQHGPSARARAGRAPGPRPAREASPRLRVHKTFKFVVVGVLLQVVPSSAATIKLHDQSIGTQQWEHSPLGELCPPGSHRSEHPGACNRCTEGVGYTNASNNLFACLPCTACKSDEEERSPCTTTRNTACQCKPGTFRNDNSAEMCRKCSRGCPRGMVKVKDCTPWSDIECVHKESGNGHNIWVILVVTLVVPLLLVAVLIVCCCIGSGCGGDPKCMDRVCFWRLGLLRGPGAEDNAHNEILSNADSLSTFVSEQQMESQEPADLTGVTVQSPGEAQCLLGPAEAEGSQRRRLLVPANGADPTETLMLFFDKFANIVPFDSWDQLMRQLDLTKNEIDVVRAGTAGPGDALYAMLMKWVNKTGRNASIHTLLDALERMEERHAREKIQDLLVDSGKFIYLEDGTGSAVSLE
Kind of experiment: flow cytometry, MDA-MB-231 cells, n = 1.

The target in experiment [4] is T2, human DR4 (Death Receptor 4), cell …. Kind of experiment: flow cytometry, DLD-1 cells, average ± SEM.
For experiment [5] the target is unchanged. Kind of experiment: flow cytometry, HCT-116 cells, n = 2.
The target is the same in experiment [6]. Kind of experiment: flow cytometry, HCT-116 cells, n = 3.

B1: BisG1-FAPα-FEAL/b12-FEAR (bispecific antibody, human IgG1, kappa)
heavy 1: EVQLLESGGGLVQPGGSPRLSCEASGFTFSSYALSWVRQAPGKGLEWVSAISGSGGGRYYADSVKGRFTISRDNSKNTLFLQMNSLRAEDTAVYYCAKEGYSSSGTYWDHWGQGTLVTVSSASTKGPSVFPLAPSSKSTSGGTAALGCLVKDYFPEPVTVSWNSGALTSGVHTFPAVLQSSGLYSLSSVVTVPSSSLGTQTYICNVNHKPSNTKVDKRVEPKSCDKTHTCPPCPAPEFEGGPSVFLFPPKPKDTLMISRTPEVTCVVVAVSHEDPEVKFNWYVDGVEVHNAKTKPREEQYNSTYRVVSVLTVLHQDWLNGKEYKCKVSNKALPAPIEKTISKAKGQPREPQVYTLPPSREEMTKNQVSLTCLVKGFYPSDIAVEWESNGQPENNYKTTPPVLDSDGSFLLYSKLTVDKSRWQQGNVFSCSVMHEALHNHYTQKSLSLSPG
light 1: AIQMTQSPSSVSASVGDRVTITCRASQGVSSWLAWYQQKPGRAPKLLIYVASTLQSGVPSRFSGSGSGTDFTLTINSLQPEDFATYYCQQANSFPPTFGQGTRLEMKRTVAAPSVFIFPPSDEQLKSGTASVVCLLNNFYPREAKVQWKVDNALQSGNSQESVTEQDSKDSTYSLSSTLTLSKADYEKHKVYACEVTHQGLSSPVTKSFNRGEC
heavy 2: QVQLVQSGAEVKKPGASVKVSCQASGYRFSNFVIHWVRQAPGQRFEWMGWINPYNGNKEFSAKFQDRVTFTADTSANTAYMELRSLRSADTAVYYCARVGPYSWDDSPQDNYYMDVWGKGTTVIVSSASTKGPSVFPLAPSSKSTSGGTAALGCLVKDYFPEPVTVSWNSGALTSGVHTFPAVLQSSGLYSLSSVVTVPSSSLGTQTYICNVNHKPSNTKVDKRVEPKSCDKTHTCPPCPAPEFEGGPSVFLFPPKPKDTLMISRTPEVTCVVVAVSHEDPEVKFNWYVDGVEVHNAKTKPREEQYNSTYRVVSVLTVLHQDWLNGKEYKCKVSNKALPAPIEKTISKAKGQPREPQVYTLPPSREEMTKNQVSLTCLVKGFYPSDIAVEWESNGQPENNYKTTPPVLDSDGSFFLYSRLTVDKSRWQQGNVFSCSVMHEALHNHYTQKSLSLSPG
light 2: EIVLTQSPGTLSLSPGERATFSCRSSHSIRSRRVAWYQHKPGQAPRLVIHGVSNRASGISDRFSGSGSGTDFTLTITRVEPEDFALYYCQVYGASSYTFGQGTKLERKRTVAAPSVFIFPPSDEQLKSGTASVVCLLNNFYPREAKVQWKVDNALQSGNSQESVTEQDSKDSTYSLSSTLTLSKADYEKHKVYACEVTHQGLSSPVTKSFNRGEC
notes: Fab-arm exchange of IgG1-FAPα-FEAL and IgG1-b12-FEAR
Consider B1, for which the EC50 in experiment [1] was determined as 0.05 mg/L; in experiment [2], 0.16 mg/L.

B2: BisG1-b12-FERL/DR4-FERR (bispecific antibody, human IgG1, kappa, lambda)
heavy 1: QVQLVQSGAEVKKPGASVKVSCQASGYRFSNFVIHWVRQAPGQRFEWMGWINPYNGNKEFSAKFQDRVTFTADTSANTAYMELRSLRSADTAVYYCARVGPYSWDDSPQDNYYMDVWGKGTTVIVSSASTKGPSVFPLAPSSKSTSGGTAALGCLVKDYFPEPVTVSWNSGALTSGVHTFPAVLQSSGLYSLSSVVTVPSSSLGTQTYICNVNHKPSNTKVDKRVEPKSCDKTHTCPPCPAPEFERGPSVFLFPPKPKDTLMISRTPEVTCVVVDVSHEDPEVKFNWYVDGVEVHNAKTKPREEQYNSTYRVVSVLTVLHQDWLNGKEYKCKVSNKALPAPIEKTISKAKGQPREPQVYTLPPSREEMTKNQVSLTCLVKGFYPSDIAVEWESNGQPENNYKTTPPVLDSDGSFLLYSKLTVDKSRWQQGNVFSCSVMHEALHNHYTQKSLSLSPG
light 1: EIVLTQSPGTLSLSPGERATFSCRSSHSIRSRRVAWYQHKPGQAPRLVIHGVSNRASGISDRFSGSGSGTDFTLTITRVEPEDFALYYCQVYGASSYTFGQGTKLERKRTVAAPSVFIFPPSDEQLKSGTASVVCLLNNFYPREAKVQWKVDNALQSGNSQESVTEQDSKDSTYSLSSTLTLSKADYEKHKVYACEVTHQGLSSPVTKSFNRGEC
heavy 2: QVQLQESGPGLVKPSGTLSLTCAVSGGSISSYSWWSWIRQPPGKGLEWIGELYHSGSTNYNPSLKSRVTISVDKSKNQFSLKLRSVTAADTAVYYCVRGVATIDYWGQGTLVTVSSASTKGPSVFPLAPSSKSTSGGTAALGCLVKDYFPEPVTVSWNSGALTSGVHTFPAVLQSSGLYSLSSVVTVPSSSLGTQTYICNVNHKPSNTKVDKRVEPKSCDKTHTCPPCPAPEFERGPSVFLFPPKPKDTLMISRTPEVTCVVVDVSHEDPEVKFNWYVDGVEVHNAKTKPREEQYNSTYRVVSVLTVLHQDWLNGKEYKCKVSNKALPAPIEKTISKAKGQPREPQVYTLPPSREEMTKNQVSLTCLVKGFYPSDIAVEWESNGQPENNYKTTPPVLDSDGSFFLYSRLTVDKSRWQQGNVFSCSVMHEALHNHYTQKSLSLSPG
light 2: QSALTQPPSASGSPGQSVTISCTGTSSDVGGYNFVSWYQQDPGKAPKLLIYEVTKRPSGVPDRFSGSKSGNTASLTVSGLQAEDEADYYCSSYAGSNNVMFGGGTKLTVLGQPKAAPSVTLFPPSSEELQANKATLVCLISDFYPGAVTVAWKADSSPVKAGVETTTPSKQSNNKYAASSYLSLTPEQWKSHRSYSCQVTHEGSTVEKTVAPTECS
notes: Fab-arm exchange of IgG1-b12-FERL and IgG1-DR4-FERR; also called bsIgG1-ctrl-FERLxDR4-FERR
Take B2: the EC50 came out at 1.14 mg/L in experiment [3], 0.72 mg/L in experiment [4], 0.65 mg/L in experiment [5] and 0.55 mg/L in experiment [6].

B3: IgG1-FAPα-FERL (antibody)
heavy: EVQLLESGGGLVQPGGSPRLSCEASGFTFSSYALSWVRQAPGKGLEWVSAISGSGGGRYYADSVKGRFTISRDNSKNTLFLQMNSLRAEDTAVYYCAKEGYSSSGTYWDHWGQGTLVTVSSASTKGPSVFPLAPSSKSTSGGTAALGCLVKDYFPEPVTVSWNSGALTSGVHTFPAVLQSSGLYSLSSVVTVPSSSLGTQTYICNVNHKPSNTKVDKRVEPKSCDKTHTCPPCPAPEFERGPSVFLFPPKPKDTLMISRTPEVTCVVVDVSHEDPEVKFNWYVDGVEVHNAKTKPREEQYNSTYRVVSVLTVLHQDWLNGKEYKCKVSNKALPAPIEKTISKAKGQPREPQVYTLPPSREEMTKNQVSLTCLVKGFYPSDIAVEWESNGQPENNYKTTPPVLDSDGSFLLYSKLTVDKSRWQQGNVFSCSVMHEALHNHYTQKSLSLSPG
light: AIQMTQSPSSVSASVGDRVTITCRASQGVSSWLAWYQQKPGRAPKLLIYVASTLQSGVPSRFSGSGSGTDFTLTINSLQPEDFATYYCQQANSFPPTFGQGTRLEMKRTVAAPSVFIFPPSDEQLKSGTASVVCLLNNFYPREAKVQWKVDNALQSGNSQESVTEQDSKDSTYSLSSTLTLSKADYEKHKVYACEVTHQGLSSPVTKSFNRGEC
notes: Bivalent monoclonal IgG1 kappa
Regarding B3, the EC50 in experiment [1] was found to be 0.03 mg/L; in experiment [2], 0.11 mg/L.

B4: IgG1-DR4-FERR (antibody, V domains shown)
VH: QVQLQESGPGLVKPSGTLSLTCAVSGGSISSYSWWSWIRQPPGKGLEWIGELYHSGSTNYNPSLKSRVTISVDKSKNQFSLKLRSVTAADTAVYYCVRGVATIDYWGQGTLVTVSS
VL: QSALTQPPSASGSPGQSVTISCTGTSSDVGGYNFVSWYQQDPGKAPKLLIYEVTKRPSGVPDRFSGSKSGNTASLTVSGLQAEDEADYYCSSYAGSNNVMFGGGTKLTVLG
notes: Bivalent monoclonal IgG1 lambda
For the molecule B4, the 50% effective concentration (EC50) in experiment [3] was found to be 0.33 mg/L; in experiment [4], 0.26 mg/L; in experiment [5], 0.16 mg/L; in experiment [6], 0.11 mg/L.
